The values that follow come from paper PMC8171356 (Nature structural & molecular biology, 2017).

Ends that are not written are not given here. * marks the point of attachment. βGlcNAc = CC(=O)N[C@@H]1[C@@H](O)[C@H](O)[C@@H](CO)O[C@H]1*

The chains are these.
B1: OGA_(cryst) (D175N) (domain or fragment, human)
chain: FLCGVVEGFYGRPWVMEQRKELFRRLQKWELNTYLYAPKDDYKHRMFWREMYSVEEAEQLMTLISAAREYEIEFIYAISPGLDITFSNPKEVSTLKRKLDQVSQFGCRSFALLFDNIDHNMCAADKEVFSSFAHAQVSITNEIYQYLGEPETFLFCPTEYCGTFCYPNVSQSPYLRTVGEKLLPGIEVLWTGPKVVSKEIPVESIEEVSKIIKRAPVIWDNIHANDYDQKRLFLGPYKGRSTELIPRLKGVLTNPNCEFEANYVAIHTLATWYKSNMNGVRKDVVMTDSEDSTVSIQIKLENEGSDEDIETDVLYSPQMALKLALTEWLQEFGVPHQYSSRGGGGSGGGGSGGGGSVTLEDLQLLADLFYLPYEHGPKGAQMLREFQWLRANSSVVSVNCKGKDSEKIEEWRSRAAKFEEMCGLVMGMFTRLSNCANRTILYDMYSYVWDIKSIMSMVKSFVQWLGCRSHSSAQFLIGDQEPWAFRGGLAGEFQRLLPIDGANDLFFQ

For data set [1] the following is noted: in vivo; cited from earlier work.
The data set “crystal structure” deals with the molecule itself. The experiment in a line: crystal structure.
The data set “AUC” deals with the molecule itself. In words: AUC.
Data set [2] has as its target T1, full-length human O-GlcNAcase (hOGA) (human, UniProt O60502 1-916).
T1 sequence (looked up): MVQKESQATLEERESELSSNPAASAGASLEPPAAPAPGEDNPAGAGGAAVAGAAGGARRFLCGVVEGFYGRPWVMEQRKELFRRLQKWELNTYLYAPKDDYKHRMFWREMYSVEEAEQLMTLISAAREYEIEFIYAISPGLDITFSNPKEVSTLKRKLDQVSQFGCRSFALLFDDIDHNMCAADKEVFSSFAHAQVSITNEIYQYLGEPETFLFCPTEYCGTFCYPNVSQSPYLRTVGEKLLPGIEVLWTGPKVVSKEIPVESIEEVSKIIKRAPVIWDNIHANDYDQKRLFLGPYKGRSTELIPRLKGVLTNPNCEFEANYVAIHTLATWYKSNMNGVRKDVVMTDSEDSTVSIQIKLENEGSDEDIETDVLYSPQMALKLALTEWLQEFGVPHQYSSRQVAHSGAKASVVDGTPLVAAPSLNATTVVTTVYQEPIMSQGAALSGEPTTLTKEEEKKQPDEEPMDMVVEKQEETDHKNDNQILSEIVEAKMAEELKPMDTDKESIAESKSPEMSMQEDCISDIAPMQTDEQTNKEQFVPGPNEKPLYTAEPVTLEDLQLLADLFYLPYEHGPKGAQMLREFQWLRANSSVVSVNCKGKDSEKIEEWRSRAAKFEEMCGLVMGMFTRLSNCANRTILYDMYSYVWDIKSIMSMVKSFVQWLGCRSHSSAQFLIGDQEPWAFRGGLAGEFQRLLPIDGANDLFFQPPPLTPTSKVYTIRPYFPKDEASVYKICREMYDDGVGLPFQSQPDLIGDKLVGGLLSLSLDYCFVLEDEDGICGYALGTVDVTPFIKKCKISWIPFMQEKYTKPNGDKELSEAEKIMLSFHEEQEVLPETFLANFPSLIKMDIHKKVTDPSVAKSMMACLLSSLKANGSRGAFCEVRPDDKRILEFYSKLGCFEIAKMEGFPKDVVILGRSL
In words: glycopeptide competition assay.

In the data set “OGA_(cryst) (D175N)” the target is B1. In words: crystal structure.

Turning to `CCN=C1N[C@@H]2[C@@H](O)[C@H](O)[C@@H](CO)O[C@@H]2S1` [thiamet-G], the “blood–brain barrier crossing” value in data set [1] is “can cross the blood–brain barrier”.
As to B1, the binding result in the data set “crystal structure” is listed as “binds”.

B2: OGA_(cryst) (truncated hOGA, residues 60-704 with residues 401-552 replaced by a 15-residue glycine-serine linker) (domain or fragment, human)
chain: FLCGVVEGFYGRPWVMEQRKELFRRLQKWELNTYLYAPKDDYKHRMFWREMYSVEEAEQLMTLISAAREYEIEFIYAISPGLDITFSNPKEVSTLKRKLDQVSQFGCRSFALLFDDIDHNMCAADKEVFSSFAHAQVSITNEIYQYLGEPETFLFCPTEYCGTFCYPNVSQSPYLRTVGEKLLPGIEVLWTGPKVVSKEIPVESIEEVSKIIKRAPVIWDNIHANDYDQKRLFLGPYKGRSTELIPRLKGVLTNPNCEFEANYVAIHTLATWYKSNMNGVRKDVVMTDSEDSTVSIQIKLENEGSDEDIETDVLYSPQMALKLALTEWLQEFGVPHQYSSRGGGGSGGGGSGGGGSVTLEDLQLLADLFYLPYEHGPKGAQMLREFQWLRANSSVVSVNCKGKDSEKIEEWRSRAAKFEEMCGLVMGMFTRLSNCANRTILYDMYSYVWDIKSIMSMVKSFVQWLGCRSHSSAQFLIGDQEPWAFRGGLAGEFQRLLPIDGANDLFFQ
On to B2, for which the “stoichiometry N” value in “AUC” stood at 2.
Regarding Ac-QLWVDS(βGlcNAc)TPPPG [O-GlcNAcylated p53 peptide Ac-QLWVDS(O-GlcNAc)TPPPG], the binding result (in data set [2]; with OGA_(cryst) (D175N)) was “binds” each time.
